The text below walks through data of patent US20140178963A1 (MINERVA BIOTECHNOLOGIES, published 2014).

This assay concerns the target T1, NM23-wt containing the Strep-tag II (UniProt P15531 1-152, limits assumed).
T1 construct: Strep-tag II version used in the nanoparticle assay; also called wild type hexamers; not shown: Strep-tag II
Nature of the assay: gold nanoparticle color change assay. The source says:
A nanoparticle assay was used to characterize the binding of NM23 dimers versus hexamers. A MUC1*ecd peptide ([…]) (SEQ ID NO:44) was immobilized on NTA-SAM-coated gold colloids. NM23-wt, NM23S120G-dimer and NM23S120G-hexamer were expressed and purified with the Strep-tag II (FIG. 22c). The addition of NM23S120G-dimer induced a pink to blue solution color change, indicating a specific binding, which was then inhibited by the addition of an anti-MUC1* Fab.

T1 sequence (P15531 whole entry): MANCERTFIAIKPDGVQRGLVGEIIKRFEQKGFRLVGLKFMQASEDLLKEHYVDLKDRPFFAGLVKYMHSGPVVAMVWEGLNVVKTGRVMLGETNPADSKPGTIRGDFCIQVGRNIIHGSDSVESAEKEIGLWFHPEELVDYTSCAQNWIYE

B1: MUC1*ecd peptide (QFNQYKTEAASRYNLTISDVSVSDVPFPFSAQSGAHHHHHH) immobilized on NTA-SAM-coated gold colloids (peptide)
peptide: QFNQYKTEAASRYNLTISDVSVSDVPFPFSAQSGAHHHHHH
notes: also called MUC1*ecd peptide (PSMGFR-His tagged)
Regarding B1, the binding result is reported as “no binding (tested: 64 nM)”.
